# Assays:
# [1] = molecular target: CheY2-T25 (P. aeruginosa); assay: two-hybrid
# [2] = molecular target: T25-CheY2 (P. aeruginosa); assay: two-hybrid
fold β-galactosidase activity over controls [1] [fold],fold β-galactosidase activity over control [2] [fold],Molecule
34,,T18-CheA2 (enzyme)
,15,CheD_(1–200)-T18 (natural protein) MNLQAREGAPLNRYYDPYFACDAVKLLPGEYFASGEDLVIVTVLGSCVSVCLRDPLNGIAGMNHFMLPERGLGGDPASPSARYGSHAMELLINRMLALGASRERLQAKVFGGGSVLRQISAAIGQRNVEFTLDYLATERIPLLASDVLEAFPRKIYFFPRNGRVLVKSLVELKNDTVLQRERDYRRRIDRNADGGPIDLF
